Measurements from patent CN109897110A (SHENZHEN BGI LIFE SCIENCE RES INSTITUTE, dated 2019).

Target: T1, 人PCSK9抗原多肽 (前蛋白转化酶枯草溶菌素9, PCSK9) (human, UniProt Q8NBP7 31-692, limits assumed)
T1 construct: Expressed in CHO cells; also called PCSK9蛋白; Proprotein convertase subtilisin/kexin type 9
Assay: ProteOn (SPR), PCSK9 immobilised on chip, nanobody dilution series as analyte

T1 sequence (Q8NBP7 31-692 limits assumed): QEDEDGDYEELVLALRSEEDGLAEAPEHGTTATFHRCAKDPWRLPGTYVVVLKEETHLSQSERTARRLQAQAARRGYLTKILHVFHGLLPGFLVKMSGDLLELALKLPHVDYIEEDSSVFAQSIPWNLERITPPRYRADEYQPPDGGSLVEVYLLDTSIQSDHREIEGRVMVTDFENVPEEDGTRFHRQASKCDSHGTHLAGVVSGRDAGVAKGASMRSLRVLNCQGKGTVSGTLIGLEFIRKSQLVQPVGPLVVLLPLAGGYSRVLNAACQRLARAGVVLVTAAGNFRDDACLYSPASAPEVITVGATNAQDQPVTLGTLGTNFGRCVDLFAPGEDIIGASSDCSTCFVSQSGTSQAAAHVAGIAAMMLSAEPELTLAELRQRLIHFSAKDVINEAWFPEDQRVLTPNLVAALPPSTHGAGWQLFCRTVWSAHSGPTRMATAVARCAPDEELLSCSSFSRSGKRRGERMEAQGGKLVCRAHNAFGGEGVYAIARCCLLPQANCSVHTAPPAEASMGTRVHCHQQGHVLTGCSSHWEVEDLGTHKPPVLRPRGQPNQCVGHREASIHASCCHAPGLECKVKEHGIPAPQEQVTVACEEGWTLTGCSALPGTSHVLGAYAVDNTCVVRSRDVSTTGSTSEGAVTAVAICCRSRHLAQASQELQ

- Kd: 25 nM
- koff: 0.000112 s⁻¹
- kon: 4490 M⁻¹ s⁻¹
B1: PCSK9纳米抗体 (VHH)
VHH: ESGGGSVQAGGSLRLSCTVSGYTYSSNCMGWFRQAPGKEHEGVASIYIGGGSTYYADSVKGRFTISQDNAKNTVYLQMNSLKPEDTAMYYCAVGCQGLVDFGYWDQGTQVTVSS
notes: Expressed from pMECS in E. coli HB2151 and purified on a Ni column; also called PCSK9 Nb; PCSK9 nanobody; not shown: tags from the pMECS vector (HA tag detected with anti-HA antibody); purified on a
